Measurements reported in paper PMC10746245.

Biological target: MoKat2 tagged with FLAG or GFP (MoKat2-FLAG and MoKat2-GFP) (Magnaporthe oryzae)
Assay: native gel or EMSA

Substance: MoKat2 tagged with FLAG or GFP (MoKat2-FLAG and MoKat2-GFP) (enzyme)
- stoichiometry N: 2
